The labels stand for the following.
T1: OPGL used in the RAW 264.7 osteoclast formation assay (Example 6) (human, UniProt O14788 143-317, limits assumed)
T1 sequence (looked up): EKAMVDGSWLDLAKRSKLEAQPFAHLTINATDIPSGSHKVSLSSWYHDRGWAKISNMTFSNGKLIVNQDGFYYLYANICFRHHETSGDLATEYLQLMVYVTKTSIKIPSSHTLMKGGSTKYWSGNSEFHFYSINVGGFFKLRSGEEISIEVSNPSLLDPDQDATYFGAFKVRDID

T2: E. coli mouse OPGL (mOPGL) 158 (mouse, UniProt O35235 158-316)
T2 construct: kept apart
T2 sequence (looked up): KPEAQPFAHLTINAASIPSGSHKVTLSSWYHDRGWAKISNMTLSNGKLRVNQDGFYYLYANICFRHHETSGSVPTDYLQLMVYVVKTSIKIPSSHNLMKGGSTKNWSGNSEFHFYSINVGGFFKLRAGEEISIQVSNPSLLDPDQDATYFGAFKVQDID

T3: CHO human OPGL (hOPGL) 140 (human, UniProt O14788 140-317)
T3 construct: also called CHO hOPGL 140
T3 sequence (looked up): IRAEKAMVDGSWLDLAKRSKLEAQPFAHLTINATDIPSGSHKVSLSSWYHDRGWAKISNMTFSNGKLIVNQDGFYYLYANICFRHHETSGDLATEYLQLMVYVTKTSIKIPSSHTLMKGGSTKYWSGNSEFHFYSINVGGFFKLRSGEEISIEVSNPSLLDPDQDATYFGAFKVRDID

T4: Murine OPGL [158-316] (murine, UniProt O35235 158-316)
T4 sequence: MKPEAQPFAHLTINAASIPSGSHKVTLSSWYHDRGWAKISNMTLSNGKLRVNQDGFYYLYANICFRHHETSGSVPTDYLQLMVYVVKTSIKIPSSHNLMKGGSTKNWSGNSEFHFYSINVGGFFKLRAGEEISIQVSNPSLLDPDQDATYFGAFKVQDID

B1: 9H7 anti-OPGL antibody (antibody, V domains shown)
VH: EVQLVQSGGGLVHPGGSLRLSCEGSGFTFSSNGMHWVRQTPGKGLEWVSGIGTAGGTYYADSVKGRFTISRDNVKKSLYLQMNSLRAEDMAIYYCVRKDWGWFDPWGQGALVTVSS
VL: EIVLTQSPATLSLSPGERATLSCRASQSISSYLAWYQQKPGQAPRLLIYDASNRATGIPARFSGSGSGTDFTLTISSLEPEDFAVYYCQQRSKWPPYTFGQGTKLEIKR
notes: Fully human IgG1 kappa from HuMab mice; also called 9H7 anti-OPGL MAb
B2: 16E1 anti-OPGL antibody (antibody, V domains shown)
VH: EVQLVQSGGGLVHPGGSLRLSCAGSGFTFSGHALHWVRQAPGKGLEWVSGIGTHGGTYYADSVKGRFTISRDNAKNSLFLQMNSLSAEDMAVYYCTRRNWGQFDYWGQGTLVTVSS
VL: B1 VL with I29V, K93N
notes: Fully human IgG1 kappa from HuMab mice
B3: 22B3 anti-OPGL antibody (antibody, human IgG1, kappa, V domains shown)
VH: B1 VH with D99N
VL: B1 VL with I29V, S30N, Y36F, V85I, K93N, Y97F
notes: as for B2
B4: 2D8 anti-OPGL antibody (antibody, V domains shown)
VH: B1 VH with E23A, N32Y, T40A, A54G, K76N, I92V, V96A, D99N, P105Y, A110T
VL: B1 VL
notes: as for B2
B5: 18B2 anti-OPGL antibody (antibody, V domains shown)
VH: EVQLVQSGGGLVHPGGSLRLSCVGSRFTFSAYPMHWVRQAPGKGLEWVSGIGSGGGTNYADSVKGRFTISRDTAKNSLYLQMNSLRAEDMAVYYCARGRNSFDYWGQGTLVTVSS
VL: DIQMTQSPSSLSASVGDRVTITCRASQGISTWLAWYQQKPEKAPKSLIYAASSLQSGVPSRFSGSGSGTDFTLTISSLQPEDFATYYCQQYNSYPPTFGQGTKVEIKR
notes: as for B2
B6: 2E11 anti-OPGL antibody (antibody, V domains shown)
VH: EVQLVQSGGDLVHPGGSLRLSCVGSGFTFSHYPLHWVRQAPGKGLEWISGIHTGGGTYYTDSVKGRFTISSDNAKNSLYLQMNTLRAEDMAVYYCARGRNSFDYWGQGTLVIVSS
VL: B5 VL with T31S, P80S, K103R, V104L
notes: Fully human IgG1 kappa from HuMab mice; also called 2 µl 1

Substitutions are numbered along the chain they refer to.

As usually defined, the koff is the first-order rate constant of dissociation. A lower koff goes with slow dissociation. As usually defined, the kon is the second-order rate constant of association. The low end stands for slower complex formation, the high end for faster complex formation. One may read the EC50 (read off the curve) as the concentration needed to bring the measured effect to its halfway point. Read a low EC50 (read off the curve) as an effect from little substance.

In the first assay the target is T1, OPGL used in the RAW 264.7 osteoclast …. In words: cell-based or functional assay.
For the molecule B1, the “IC50 (ng/mL), inhibition of OPGL-driven osteoclast formation of RAW 264.7 cells (TRAP activity, OD 405 nM)” value (from here on “IC50 (ng/mL), inhibition”) came out at 129 ng/mL.

For the molecule B2, the “IC50 (ng/mL), inhibition” value was 352 ng/mL.

With B3, the “IC50 (ng/mL), inhibition” value stood at 146 ng/mL.

For the molecule B4, the “IC50 (ng/mL), inhibition” value came out at 611 ng/mL.

On to B5, for which the “IC50 (ng/mL), inhibition” value came out at 80 ng/mL.

As for B6, the “IC50 (ng/mL), inhibition” value stood at 77 ng/mL.

The target in a further assay is T2, E. coli mouse OPGL (mOPGL) 158. Description: SPR (BIAcore 2000), antibody captured on Protein G, mOPGL 158 in solution. How it is done:
(§1) All experiments were performed on a BlAcore 2000 according to the manufacturer's instructions, with the following modifications. Experiments were performed at room temperature using a running buffer containing 10 mM Hepes (pH 7.4), 0.15M NaCl, 3 mM EDTA, and 0.005% Tween 20. Protein G at 50 μg/mL in 10 mM acetate pH 4.5 was immobilized to a level of 1,600 response units (RU) onto a CM5 Research grade sensor chip (BlAcore, Inc.). Antibodies (8-20 μg/mL) were captured onto the Protein G chip at a level of 300-400 RUs. […] Langmuir 1:1 model was used to determine binding kinetics. Protein G immobilized to 1600 RUs was used as a blank surface. A mouse monoclonal antibody was used as a positive control to show binding to hOPGL 140 and to monitor surface stability.
For B1, the binding result is given as “no binding (tested: 0.25-62 nM)”.

Consider B2, for which the binding result is listed as “no binding (tested: 0.25-62 nM)”.

For the molecule B4, the binding result was “no binding (tested: 0.25-62 nM)”.

Consider B5, for which the binding result is “no binding (tested: 0.25-62 nM)”.

On to B6, for which the binding result is given as “no binding (tested: 0.25-62 nM)”.

The next assay addresses T3, CHO human OPGL (hOPGL) 140. In words: SPR (BIAcore 2000), antibody captured on Protein G, hOPGL 140 in solution 0.25-62 nM, Langmuir 1:1. On the procedure: as §1
(In general: SPR reads the build-up and loss of mass on a sensor chip optically.)
Take B2: the koff amounted to 0.000137 s⁻¹, the kon came to 2.16e+06 M⁻¹ s⁻¹ and the “off rate half life t½” value came to 1.41 h.

For B3, the koff was determined as 6.39e-05 s⁻¹, the kon came out at 1.9e+06 M⁻¹ s⁻¹ and the “off rate half life t½” value was 3.01 h.

With B5, the koff turned out to be 0.000186 s⁻¹, the kon was 878000 M⁻¹ s⁻¹ and the “off rate half life t½” value is 1.03 h.

Regarding B6, the koff worked out at 0.000132 s⁻¹, the kon was found to be 453000 M⁻¹ s⁻¹ and the “off rate half life t½” value came to 1.46 h.

For another assay, the target named is T4, Murine OPGL [158-316]. In words: ELISA: plate coated with murine OPGL[158-316] at 3 µg/mL, antibody titrated 1.95-2000 ng/ml, goat anti-human IgG (Fc) detection, ABTS, OD405. On the procedure:
(§2) After overnight incubation, the protein solutions were removed from the plate and 200 μL of 5% Chicken Serum (Gibco/BRL Cat# 16110-082) in PBST (PBS plus 0.05% Tween 20) was added to each well of the plate and plates were incubated at room temperature (RT) for 3 hours with agitation. After incubation and blocking, plates were washed 4 times with 1× K-P wash solution in dH₂O (Cat# 50-63-00, Kirkegaard & Perry Laboratories) and dried. […] Plates were incubated for 2.25 hours at room temperature with agitation, washed four times with 1× K-P wash solution and dried. Goat anti-human IgG (Fc) (Jackson ImmunoResearch, Cat# 109-036-098) was diluted 1:3000 in 5% Chicken Serum in PBST and 100 μL was added to each well. […] 100 μL of undiluted ABTS substrate (Kirkegaard & Perry; Cat# 50-66-00) was added to each well and the dish was incubated at room temperature until sufficient blue-green color developed. Color development was stopped by addition of 100 μL 1% SDS. Quantitation of color development was performed using a microtiter plate reader with detection at 405 nm.
Background: In an ELISA, binding on a coated surface is turned into a signal by an enzyme label.
As for B1, the binding result is on record as “no binding (tested: 2000 ng/ml)”.

For B2, the binding result is “no binding (tested: 2000 ng/ml)”.

On to B4, for which the binding result is given as “no binding (tested: 2000 ng/ml)”.

As for B5, the binding result was “no binding (tested: 2000 ng/ml)”.

In the case of B6, the binding result is reported as “no binding (tested: 2000 ng/ml)”.

Another assay has as its target T5, FLAG-murine OPGL [158-316]/DE (murine, UniProt O35235 158-316).
T5 construct: The same paragraph also prints the changes as S231D, V232L, P233A and D235E (T234 unchanged), a numbering two higher than the 229-233 it gives first
In words: ELISA: plate coated with FLAG-murine OPGL[158-316]/DE at 3 µg/mL, antibody titrated 1.95-2000 ng/ml, goat anti-human IgG (Fc) detection, ABTS, OD405. On the procedure: as §2
In the case of B2, the “EC50 (read off the curve)” value is around 0.01 µg/mL.

Turning to B3, the “EC50 (read off the curve)” value is around 0.009 µg/mL.

For the molecule B6, the binding result was “no binding (tested: 2000 ng/ml)”.
